From patent US20240075093A1 (VIRGINIA TECH INTELLECTUAL PROPERTIES, published 2024)

Target: p110β (isolated PI3K protein subunit, cell-free kinase ELISA) (UniProt P42338 1-1070, limits assumed)
Test: cell-based or functional assay

Chain of p110β (isolated PI3K protein subunit, cell-free kinase ELISA) (P42338 whole entry): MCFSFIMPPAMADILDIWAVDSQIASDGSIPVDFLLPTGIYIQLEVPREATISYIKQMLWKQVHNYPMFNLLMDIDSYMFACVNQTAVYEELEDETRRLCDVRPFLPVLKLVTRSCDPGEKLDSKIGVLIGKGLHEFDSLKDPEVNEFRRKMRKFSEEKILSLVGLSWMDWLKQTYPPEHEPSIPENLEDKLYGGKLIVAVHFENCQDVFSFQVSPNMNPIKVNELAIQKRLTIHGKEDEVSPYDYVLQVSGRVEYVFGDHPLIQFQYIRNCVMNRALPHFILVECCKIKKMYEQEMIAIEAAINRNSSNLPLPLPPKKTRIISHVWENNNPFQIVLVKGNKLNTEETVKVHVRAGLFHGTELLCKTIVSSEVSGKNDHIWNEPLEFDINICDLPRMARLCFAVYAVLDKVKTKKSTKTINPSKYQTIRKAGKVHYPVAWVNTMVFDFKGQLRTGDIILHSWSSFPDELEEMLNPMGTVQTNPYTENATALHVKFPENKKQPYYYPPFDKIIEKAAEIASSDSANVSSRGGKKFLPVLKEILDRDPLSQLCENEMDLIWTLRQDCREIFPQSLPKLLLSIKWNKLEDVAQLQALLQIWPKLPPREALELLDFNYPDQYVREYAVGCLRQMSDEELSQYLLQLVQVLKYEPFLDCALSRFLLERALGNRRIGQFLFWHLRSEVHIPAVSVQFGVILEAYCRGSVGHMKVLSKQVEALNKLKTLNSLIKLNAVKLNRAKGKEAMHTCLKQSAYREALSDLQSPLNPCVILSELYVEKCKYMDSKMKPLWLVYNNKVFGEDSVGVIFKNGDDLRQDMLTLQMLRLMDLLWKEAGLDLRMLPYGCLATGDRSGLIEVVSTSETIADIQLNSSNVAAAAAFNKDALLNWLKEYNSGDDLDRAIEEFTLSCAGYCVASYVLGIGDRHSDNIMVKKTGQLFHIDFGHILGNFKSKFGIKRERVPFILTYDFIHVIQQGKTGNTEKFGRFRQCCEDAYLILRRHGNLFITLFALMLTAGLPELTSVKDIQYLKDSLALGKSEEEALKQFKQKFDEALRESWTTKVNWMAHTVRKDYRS

activity of the p110b catalytic subunit, measured via ELISA; Half Maximal Inhibitory Concentration (IC50): 105 nM
Binder: RQPKIWFPNRRKPWKKTKKSTKTINPSKYQTIRK [Ante-Selectide-18]
